Results from publication PMC4621360 (2015).

Target: FSFG-K (single FSFG site) (Saccharomyces cerevisiae, UniProt P14907)
Experiment: NMR

Kd: > 216 µM
B1: Kap95 (protein)
chain: STAEFAQLLENSILSPDQNIRLTSETQLKKLSNDNFLQFAGLSSQVLIDENTKLEGRILAALTLKNELVSKDSVKTQQFAQRWITQVSPEAKNQIKTNALTALVSIEPRIANAAAQLIAAIADIELPHGAWPELMKIMVDNTGAEQPENVKRASLLALGYMCESADPQSQALVSSSNNILIAIVQGAQSTETSKAVRLAALNALADSLIFIKNNMEREGERNYLMQVVCEATQAEDIEVQAAAFGCLCKIMSLYYTFMKPYMEQALYALTIATMKSPNDKVASMTVEFWSTICEEEIDIAYELAQFPQSPLQSYNFALSSIKDVVPNLLNLLTRQNEDPEDDDWNVSMSAGACLQLFAQNCGNHILEPVLEFVEQNITADNWRNREAAVMAFGSIMDGPDKVQRTYYVHQALPSILNLMNDQSLQVKETTAWCIGRIADSVAESIDPQQHLPGVVQACLIGLQDHPKVATNCSWTIINLVEQLAEATPSPIYNFYPALVDGLIGAANRIDNEFNARASAFSALTTMVEYATDTVAETSASISTFVMDKLGQTMSVDENQLTLEDAQSLQELQSNILTVLAAVIRKSPSSVEPVADMLMGLFFRLLEKKDSAFIEDDVFYAISALAASLGKGFEKYLETFSPYLLKALNQVDSPVSITAVGFIADISNSLEEDFRRYSDAMMNVLAQMISNPNARRELKPAVLSVFGDIASNIGADFIPYLNDIMALCVAAQNTKPENGTLEALDYQIKVLEAVLDAYVGIVAGLHDKPEALFPYVGTIFQFIAQVAEDPQLYSEDATSRAAVGLIGDIAAMFPDGSIKQFYGQDWVIDYIKRTRSGQLFSQATKDTARWAREQQKRQLSL
